Results as given in patent US20250195685A1 (CAPSTAN THERAPEUTICS, published 2025).

B1: CBD1033 whole antibody, human IgG1 with Fc-silencing mutations L234A, L235A and P329A (CBD1033-hIgG1-LALAPA) (antibody, V domains shown)
VH: QVQLVQSGAEVKKPGASVKVSCKASRYTFTDYNLHWVRQAPGQGLEWMGFIYPYNGGTGYAQKFQGRVTMTVDTSTSTAYMELSSLRSEDTAVYYCARDHRYNEGVSFDYWGQGTTVTVSS
VL: DIQLTQSPSSLSASVGDRATITCRASESVDGFGNSFMNWYQQKPGKAPKLLIYLASNLESGVPSRFSGSGSGTDFTLTISSVQPEDFATYYCQQNNEDPYTFGQGTKLEIKR
notes: On tLNPs the antibody was SATA-modified or AJICAP-thiolated (CBD1033.29) and conjugated to the LNP; also called CBD1033.3; CBD1033 IgG1
B2: CBD1017ch whole antibody (chimeric CT8 antibody) (antibody, V domains shown)
VH: EVQLQQSGPELVKPGASVKISCKASRYTFTDYNLHWVKLSHEKSLEWIGFIYPYNGGTGYNQKFKNKAKLTVDYSSSTAYMELRSLTSVDAAVYYCARDHRYNEGVSFDYWGQGTTLTVSS
VL: NIVLTQSPASLAVSLGQRATISCRASESVDGFGNSFMNWYQQKPGQSPKLLIYLASNLESGVPARFSGSGSRTDFTLTIDPVEADDAATYYCQQNNEDPYTFGGGTKLEIK
notes: Chimeric antibody comprising the variable regions of the donor antibody CT8; detected with anti-human Fc

How the values were obtained:
[1] = target: T1, human CD8αα homodimer, recombinant protein (Acro Biosystems) (human, UniProt P01732 22-182); assay: BLI steady state, whole hIgG1-LALAPA antibody on CD8α-His (Ni-NTA sensor), 30 °C
T1 construct: also called CD8αα antigen; biotinylated CD8α recombinant protein (CDA-H82E3)
Protocol: (§1) To assess affinity of whole antibodies, steady state analysis was used as the bivalent nature of both whole antibody and CD8α complicates kinetic analysis. 50 nM CD8α-His (that is, CD8α with a C-terminal oligohistidine tag; Acro) was immobilized on Ni-NTA sensor probes. Binding was analyzed with a three-fold antibody dilutions series: 60 nM, 20 nM, 6.67 nM, 2.22 nM, 0.74 nM, and 0.25 nM. The antigen-loaded sensors were incubated in the diluted solutions to capture the whole IgG antibody for 300 s to record the association phase. Sensors were incubated in the kinetic buffer for 900 s to record the dissociation phase. The spin speed was 1000 rpm for all steps except the antigen loading step which was 400 rpm to control density of the antigen. The temperature of the performed assays was at 30° C. during the association and dissociation phases. The sensor data were baseline subtracted and further analyzed in GatorOne software (version 2.10) to determine the equilibrium dissociation constants (KD) of the antibodies by fitting the signals of the steady states to the 1:1 binding model.

[2] = target: T1, human CD8αα homodimer, recombinant …; assay: BLI steady state analysis, whole antibody, sample kept at pH 7.2, 4C (unstressed)
Protocol: as §1

[3] = target: T1, human CD8αα homodimer, recombinant …; assay: BLI binding kinetic analysis, whole antibody, sample kept at pH 7.2, 4C (unstressed)
[4] = target: T1, human CD8αα homodimer, recombinant …; assay: BLI binding kinetic analysis, whole antibody, sample stressed at pH 8.5, 40 °C, 7 days
[5] = target: T2, human CD8 on cells (CD8-overexpressing HEK293T cells, SupT1, HPB-ALL, human T cells, transfected HEK293 of … (human, UniProt P01732 22-235)); assay: flow cytometry, Human Expanded T cells Donor 5, gated on live CD8 T cells (via CD3+CD4-)
T2 construct: whole, on cells; also called cell surface CD8
Protocol: (§2) To obtain the results shown in FIG. 8A and FIG. 8B, 5×10⁴ expanded primary T cells (human, cynomolgus macaque or rhesus monkey) were thawed and transferred to a V bottom 96-well culture plate (Corning). Cells were washed twice with Cell Staining buffer (#420201, Biolegend). Each anti-CD8α antibody was diluted in four-fold antibody titration series from 60 μg/mL to 0.057 ng/mL into Cell Staining buffer. Cells were stained with each diluted antibody solution for 30 minutes on ice. Cells were then washed three times with Cell Staining buffer and primary antibody binding was detected by staining with anti-human Fc BV421 conjugate antibody (#410704, Biolegend) at 1:200 dilution for 30 minutes on ice. […] Flow cytometry data was analyzed by Flowjo 10 (Becton, Dickinson & Company) to measure the geometric median fluorescence intensity (gMFI) of the on-cell binding from each antibody. The gMFI values were normalized with the gMFI measured in the sample stained with only the secondary detection antibody and plotted against the concentration of the added antibodies. The binding curves were constructed using Graphpad Prism software, and EC₅₀ values were determined by non-linear curve fitting.

[6] = target: T2, human CD8 on cells (CD8-overexpressing …); assay: flow cytometry, Human Expanded T cells Donor 6, gated on live CD8 T cells (via CD3+CD4-)
Protocol: as §2

[7] = target: T3, cynomolgus macaque CD8 on expanded primary T cells (cynomolgus macaque); assay: flow cytometry, Cyno Expanded T cells Donor 10, gated on live CD8 T cells (via CD3+CD4-)
T3 construct: also called CD4- CD8+ cynomolgus macaque T cells
Protocol: as §2

[8] = target: T2, human CD8 on cells (CD8-overexpressing …); assay: flow cytometry, Human Expanded T cells Donor 5, gated on live CD8 T cells (via CD3+CD4-); remark: listed apart in the source
Protocol: as §2

[9] = target: T2, human CD8 on cells (CD8-overexpressing …); assay: flow cytometry, Human Expanded T cells Donor 6, gated on live CD8 T cells (via CD3+CD4-); remark: listed apart in the source
Protocol: as §2

[10] = target: T3, cynomolgus macaque CD8 on expanded …; assay: flow cytometry, Cyno Expanded T cells Donor 9, gated on CD4- T cells, anti-human Fc BV421
Protocol: Binding was measured by fluorescence from the BV421 fluorophore-conjugated anti-human Fc secondary antibody that recognize the binders. The gMFI was normalized to the gMFI of the secondary antibody in the absence of the anti-CD8α binders.
as §2, with “Cells were stained with each diluted antibody solution for 30 minutes on ice.” left out

[11] = target: T4, rhesus macaque CD8 on expanded primary T cells (rhesus macaque); assay: flow cytometry, Rhesus Expanded T cells Donor 9, gated on live CD8 T cells (via CD3+CD4-)
T4 construct: also called CD4- CD8+ rhesus T cells
Protocol: as §2

T2 sequence (P01732 22-235): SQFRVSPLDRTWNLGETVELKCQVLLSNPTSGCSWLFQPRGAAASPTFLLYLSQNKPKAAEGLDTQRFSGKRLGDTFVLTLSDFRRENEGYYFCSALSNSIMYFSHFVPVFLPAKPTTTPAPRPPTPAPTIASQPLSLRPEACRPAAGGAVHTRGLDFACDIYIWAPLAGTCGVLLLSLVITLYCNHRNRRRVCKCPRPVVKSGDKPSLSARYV
T1 sequence (P01732 22-182 limits assumed): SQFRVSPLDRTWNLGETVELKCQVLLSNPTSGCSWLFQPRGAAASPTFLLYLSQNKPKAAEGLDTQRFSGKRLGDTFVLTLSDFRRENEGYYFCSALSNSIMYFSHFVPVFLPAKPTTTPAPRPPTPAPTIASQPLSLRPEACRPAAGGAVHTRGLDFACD

| Binder | Kd [1] | Kd [2] | Kd [3] | koff [3] | kon [3] | Kd [4] | koff [4] | kon [4] | EC50 [5] | EC50 [6] | EC50 [7] | EC50 [8] | EC50 [9] | EC50 (read off the curve) [10] | EC50 [11] |
| --- | --- | --- | --- | --- | --- | --- | --- | --- | --- | --- | --- | --- | --- | --- | --- |
| B1 | 2.27 nM | 1.45 nM | 1.66 nM | 0.00308 s⁻¹ | 1.85e+06 M⁻¹ s⁻¹ | 2.19 nM | 0.00309 s⁻¹ | 1.41e+06 M⁻¹ s⁻¹ | 0.094 µg/mL | 0.112 µg/mL | 1.16 nM | 0.644 nM | 0.767 nM | ~0.2 µg/mL | 0.145 µg/mL |
| B2 | 0.58 nM | 0.36 nM | 0.43 nM | 0.000655 s⁻¹ | 1.53e+06 M⁻¹ s⁻¹ | 0.55 nM | 0.000795 s⁻¹ | 1.45e+06 M⁻¹ s⁻¹ | 0.051 µg/mL | 0.052 µg/mL | 0.39 nM | 0.349 nM | 0.356 nM | ~0.06 µg/mL | 0.045 µg/mL |
